Experimental data from publication PMC11555231 (2024).
Ends that are not written are not given here.

target: T1, N-terminally biotinylated recombinant human PADI4 (bio-His-PADI4) (human, UniProt Q9UM07 1-663, biotin on the N-terminal Avi-Tag (BirA)); assay: SPR
T1 sequence (Q9UM07 whole entry): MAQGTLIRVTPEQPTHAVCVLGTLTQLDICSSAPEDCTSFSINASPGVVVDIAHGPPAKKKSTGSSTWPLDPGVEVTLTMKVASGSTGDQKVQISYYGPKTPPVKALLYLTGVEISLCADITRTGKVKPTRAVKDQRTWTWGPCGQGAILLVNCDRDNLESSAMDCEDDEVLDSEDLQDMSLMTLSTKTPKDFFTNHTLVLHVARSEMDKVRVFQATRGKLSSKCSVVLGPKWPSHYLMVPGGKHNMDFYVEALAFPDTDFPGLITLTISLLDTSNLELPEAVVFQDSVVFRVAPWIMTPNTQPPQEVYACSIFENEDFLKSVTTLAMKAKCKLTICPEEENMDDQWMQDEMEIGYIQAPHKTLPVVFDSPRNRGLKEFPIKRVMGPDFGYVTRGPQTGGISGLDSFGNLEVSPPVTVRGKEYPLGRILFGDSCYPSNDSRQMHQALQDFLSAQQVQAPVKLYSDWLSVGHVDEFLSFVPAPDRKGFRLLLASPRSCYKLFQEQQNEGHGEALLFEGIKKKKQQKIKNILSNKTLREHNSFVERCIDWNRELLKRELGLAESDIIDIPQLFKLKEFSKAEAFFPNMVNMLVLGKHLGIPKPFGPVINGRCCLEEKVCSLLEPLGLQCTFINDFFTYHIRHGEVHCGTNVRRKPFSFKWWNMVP

Kd [nM] | Binder
14000 | YESCRYRQALQL [PADI4_11 V9A]
114000 | YASCRYRQVLQL (as PADI4_11: thioether cyclisation between the N-terminus and the side chain of C4; C-terminal amide) [PADI4_11 analogue with E2 replaced by alanine]
20000 | YQSCRYRQVLQL (as PADI4_11: thioether cyclisation between the N-terminus and the side chain of C4; C-terminal amide) [PADI4_11 analogue with E2 replaced by glutamine]
> 2000 | YESCRY [11B]
1400 | YESCKYRQVLQL (as PADI4_11: thioether cyclisation between the N-terminus and the side chain of C4; C-terminal amide) [PADI4_11 analogue with R5 replaced by lysine]
500 | YESCRYRQVLQL (not fully specified; L-tyrosine at position 1; cyclised via a thioether bond between the N-terminus (chloroacetylated) and the side chain of C4; C-terminal amide) [PADI4_11]
34000 | YESCAYRQVLQL (as PADI4_11: thioether cyclisation between the N-terminus and the side chain of C4; C-terminal amide) [PADI4_11 analogue with R5 replaced by alanine]
310 | YESCRYRQVLAL [PADI4_11 Q11A]
41000 | YDSCRYRQVLQL (as PADI4_11: thioether cyclisation between the N-terminus and the side chain of C4; C-terminal amide) [PADI4_11 analogue with E2 replaced by aspartic acid]
11100 | AESCRYRQVLQL [PADI4_11 Y1A]
118000 | YESARYRQVLQL-NH2 [PADI4_11 analogue with C4 replaced by alanine]
13000 | YESCRARQVLQL [PADI4_11 Y6A]
500 | YESCRYRAVLQL [PADI4_11 Q8A]
5100 | YESCRYRQVLQA [PADI4_11 L12A]
300 | YESCRYRQVAQL [PADI4_11 L10A]
160 | YEACRYRQVLQL [PADI4_11 S3A]
700 | YESCRYKQVLQL (as PADI4_11: thioether cyclisation between the N-terminus and the side chain of C4; C-terminal amide) [PADI4_11 analogue with R7 replaced by lysine]
4000 | YESCRYAQVLQL (as PADI4_11: thioether cyclisation between the N-terminus and the side chain of C4; C-terminal amide) [PADI4_11 analogue with R7 replaced by alanine]

target: T1, N-terminally biotinylated recombinant …; assay: SPR; remark: another data set of the same source

Kd [nM] | Binder
23 | YRDHHYRHPKYCG [PADI4_3_dY1(OMe)Y]
6 | YRDHHYWHPKYCG (as PADI4_3: D-tyrosine at position 1; thioether cyclisation between the N-terminus and the cysteine side chain; C-terminal amide) [PADI4_3 variant with R7 replaced by tryptophan]
4 | YRDHHYRHPIYCG [PADI4_3_K10I]
8 | YRDHHYAHPKYCG (as PADI4_3: D-tyrosine at position 1; thioether cyclisation between the N-terminus and the cysteine side chain; C-terminal amide) [PADI4_3 variant with R7 replaced by alanine]
30 | YRDHHHRHPKYCG [PADI4_3_Y6H]
5 | YRDHHYRHPVYCG [PADI4_3_K10V]
41 | YRDHHYNHPKYCG (as PADI4_3: D-tyrosine at position 1; thioether cyclisation between the N-terminus and the cysteine side chain; C-terminal amide) [PADI4_3 variant with R7 replaced by asparagine]
7 | YRDRHYRHPIYCG (D-tyrosine at position 1; N-terminus joined to the side chain of Cys12 by a thioether bond (cyclic); C-terminal amide) [PADI3_H4R_K10_I]
